{
  "source": "patent US20230055566A1",
  "key": {"[1]": {"molecular_target": "recombinant human FGFR1b-Fc (human) (UniProt P11362)", "sequence (P11362 other isoform, or with tags, fused parts or gaps)": "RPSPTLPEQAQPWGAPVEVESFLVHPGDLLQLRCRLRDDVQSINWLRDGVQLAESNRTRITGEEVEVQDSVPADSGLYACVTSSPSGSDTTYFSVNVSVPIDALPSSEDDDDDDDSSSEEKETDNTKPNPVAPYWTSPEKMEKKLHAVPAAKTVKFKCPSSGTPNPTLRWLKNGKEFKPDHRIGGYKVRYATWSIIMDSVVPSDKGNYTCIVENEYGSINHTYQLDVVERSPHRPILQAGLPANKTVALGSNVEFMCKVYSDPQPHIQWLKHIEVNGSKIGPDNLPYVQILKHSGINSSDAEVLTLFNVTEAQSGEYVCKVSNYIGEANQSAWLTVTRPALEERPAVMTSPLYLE", "assay": "SPR (Biacore), hFGFR1b-Fc immobilized on CM5 chip, antibody injected at 0-200 nM"}, "[2]": {"molecular_target": "recombinant human FGFR1b-Fc (human) (UniProt P11362)", "assay": "SPR (Biacore T200), hFGFR1b-Fc amine-coupled on CM5 chip, antibody as analyte"}, "[3]": {"molecular_target": "human FGFR2b (beta)-Fc (human) (UniProt P21802)", "assay": "SPR (Biacore), hFGFR2b-Fc immobilized on CM5 chip, antibody injected at 0-200 nM"}, "[4]": {"molecular_target": "human FGFR2b on engineered Ba/F3 cells (Ba/F3-FGFR2b) (human), P21802", "sequence (P21802 22-821, change not shown)": "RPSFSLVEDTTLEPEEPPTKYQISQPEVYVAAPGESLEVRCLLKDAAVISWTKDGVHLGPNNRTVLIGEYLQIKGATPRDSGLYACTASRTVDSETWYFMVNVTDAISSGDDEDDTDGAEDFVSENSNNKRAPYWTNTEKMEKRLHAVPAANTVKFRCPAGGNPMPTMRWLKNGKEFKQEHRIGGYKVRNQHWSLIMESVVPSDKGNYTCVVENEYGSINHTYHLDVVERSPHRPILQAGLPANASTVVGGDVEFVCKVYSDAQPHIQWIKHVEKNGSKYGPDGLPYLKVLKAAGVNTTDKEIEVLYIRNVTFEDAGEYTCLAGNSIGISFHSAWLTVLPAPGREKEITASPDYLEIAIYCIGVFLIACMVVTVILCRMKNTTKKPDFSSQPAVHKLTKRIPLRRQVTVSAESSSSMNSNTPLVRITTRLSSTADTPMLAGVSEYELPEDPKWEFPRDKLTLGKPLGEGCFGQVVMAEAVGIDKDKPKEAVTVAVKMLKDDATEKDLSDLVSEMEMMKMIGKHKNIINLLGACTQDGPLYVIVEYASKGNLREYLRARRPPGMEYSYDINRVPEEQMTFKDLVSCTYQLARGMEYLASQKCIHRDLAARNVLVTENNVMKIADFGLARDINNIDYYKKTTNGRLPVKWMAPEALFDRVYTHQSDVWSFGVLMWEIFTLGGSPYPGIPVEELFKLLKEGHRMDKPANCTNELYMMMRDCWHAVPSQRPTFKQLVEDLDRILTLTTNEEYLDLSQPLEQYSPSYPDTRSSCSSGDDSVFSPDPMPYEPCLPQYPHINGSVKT", "assay": "cell-based or functional assay"}, "[5]": {"molecular_target": "endogenous FGFR2b on the cell membrane of human gastric cancer cells (KATOIII, SNU16) (human) (UniProt P21802)", "assay": "flow cytometry on FGFR2b expressing KATOIII cells"}, "[6]": {"molecular_target": "recombinant human FGFR2b-Fc (murine Fc) (human) (UniProt P21802)", "assay": "ELISA, plate coated with human FGFR2b-Fc, anti-human IgG HRP"}, "[7]": {"molecular_target": "human FGFR2b (beta)-Fc (human) (UniProt P21802)", "assay": "ELISA, plate coated with HuFGFR2b"}},
  "data": [
    {"binder": "FPA144 (antibody, INN chains, looked up, V domains shown) VH: QVQLVQSGAEVKKPGSSVKVSCKASGYIFTTYNVHWVRQAPGQGLEWIGSIYPDNGDTSYNQNFKGRATITADKSTSTAYMELSSLRSEDTAVYYCARGDFAYWGQGTLVTVSS VL: DIQMTQSPSSLSASVGDRVTITCKASQGVSNDVAWYQQKPGKAPKLLIYSASYRYTGVPSRFSGSGSGTDFTFTISSLQPEDIATYYCQQHSTTPYTFGQGTKLEIK", "values": [
      {"measurement": "koff", "setting": "[1]", "result": 0.00746, "unit": "s⁻¹"},
      {"measurement": "kon", "setting": "[1]", "result": 33200, "unit": "M⁻¹ s⁻¹"},
      {"measurement": "Kd", "setting": "[2]", "result": 225, "unit": "nM"}
    ]},
    {"binder": "Ab hu21-26 (antibody, human IgG1, V domains shown) VH: EVQLVQSGAEVKKPGASVKVSCKASGYTFTNYWMHWVRQAPGQGLEWMGAIYPENRDINYNQKFKGRVTLTRDTSISTAYMELSRLRSDDTAVYYCTSRGDYWGQGTTVTVSS VL: AIQLTQSPSSLSASVGDRVTITCSASSGLSYMSWYQQKPGKAPKLLIYDTSNLASGVPSRFSGSGSGTDFTLTISSLQPEDFATYYCQQWSSYPYTFGQGTKLEIK", "values": [
      {"measurement": "Kd", "setting": "[3]", "result": 0.482, "unit": "nM"},
      {"measurement": "koff", "setting": "[3]", "result": "5.58e-05", "unit": "s⁻¹"},
      {"measurement": "kon", "setting": "[3]", "result": 116000, "unit": "M⁻¹ s⁻¹"}
    ]},
    {"binder": "Ab hu21-21 (antibody, V domains shown) VH: EVQLVQSGAEVKKPGASVKVSCKASGYTFTNYWMHWVRQAPGQGLEWMGAIYPENGDINYNQKFKGRVTLTRDTSISTAYMELSRLRSDDTAVYYCTSRGDYWGQGTTVTVSS VL: AIQLTQSPSSLSASVGDRVTITCSASSGLSYMSWYQQKPGKAPKLLIYDTSNLASGVPSRFSGSGSGTDFTLTISSLQPEDFATYYCQQWSSYPYTFGQGTKLEIK", "values": [
      {"measurement": "Kd", "setting": "[3]", "result": 0.25, "unit": "nM"},
      {"measurement": "koff", "setting": "[3]", "result": "2.45e-05", "unit": "s⁻¹"},
      {"measurement": "kon", "setting": "[3]", "result": 98000, "unit": "M⁻¹ s⁻¹"}
    ]},
    {"binder": "Ab 21c (antibody, V domains shown) VH: EVQLHQSGTVLARPGASVKMSCKTSGYTFTNYWMHWIKQRPGQGLEWIGAIYPENGDINYNQKFKGKAKLTAVTSASTAYMDLSSLTNEDSAVYYCTSRGDYWGQGTTLTVSS VL: QIVLTQSPAIMSASPGEKVTMTCSASSGLSYMSWYQQKPGSSPRLLIYDTSNLASGVPVRFSGSGSGTSYSLTISRMEAEDAATYYCQQWSSYPYTFGGGTKLEIK", "values": [
      {"measurement": "GI50, inhibition of FGF7-induced BaF3 cell proliferation (MTS, 72 hours)", "setting": "[4]", "result": 10, "unit": "nM"},
      {"measurement": "EC50", "setting": "[5]", "result": 8, "unit": "nM"},
      {"measurement": "Kd", "setting": "[3]", "result": 0.269, "unit": "nM"},
      {"measurement": "koff", "setting": "[3]", "result": "2.46e-05", "unit": "s⁻¹"},
      {"measurement": "kon", "setting": "[3]", "result": 91300, "unit": "M⁻¹ s⁻¹"},
      {"measurement": "EC50 (read off the curve)", "setting": "[6]", "result": 400, "unit": "pM"}
    ]},
    {"binder": "Ab 21 (antibody, V domains shown) VH: EVQLHQSGTVLARPGASVKMSCKTSGYTFTNYWMHWIKQRPGQGLEWIGAIYPENGDINYNQKFKGKAKLTAVTSASTAYMDLSSLTNEDSAVYYCTSRGDYWGQGTTLTVSS VL: QIVLTQSPAIMSASPGEKVTMTCSASSGLSYMSWYQQKPGSSPRLLIYDTSNLASGVPVRFSGSGSGTSYSLTISRMEAEDAATYYCQQWSSYPYTFGGGTKLEIK", "values": [
      {"measurement": "EC50 (read off the curve)", "setting": "[7]", "result": 400, "unit": "pM"}
    ]}
  ]
}
